Measured values reported in patent publication US20090117593A1, “T. Cruzi-derived neurotrophic agents and methods of use therefor” (Tufts University, priority 2006, published 2009).
Entries after “also recorded” stand apart in the source; their conditions may differ. Read-outs that look alike come from different tables or passages of the source.

Key:
neuroblastoma N18 cells = experiment: Neurite outgrowth assay in N18 cells; type: cell-based; conditions: soluble or immobilized on plastic (500 μg/ml coating), 17 hours
Method: 96-well microtiter plates were coated overnight at 4° C. with the TS or peptides or fragments thereof, or with control proteins laminin (Ln) or bovine serum albumin (BSA) at 500 μg/ml. After removing the compounds, the plates were further incubated with 1% BSA for 1 hour at room temperature and immediately used as substratum for PC12 or N18 (Prasad, K., Biol. Rev. Camb. Philos. Soc., 66:431-451 (1991)) cells in serum-free RPMI/0.2% BSA. Neurite outgrowth was measured using a phase-contrast microscope 17 hours later.

IL-6 [1] = experiment: IL-6 secretion by PBMC (ELISA); type: cell-based, human; conditions: 24 hours
Method: (§1) Primary cultures of human intestinal microvascular endothelial cells (HIMEC) isolated from normal jejunal mucosa/submucosal tissue were prepared as described (Strong et al., Gastroenterology 114:1244-1256 (1998)). The HIMEC were cultured in fibronectin-coated plasticware in MCDB medium (Sigma) supplemented with 20% FBS, 90 μg/ml heparin and 50 μg/ml endothelial cell growth factor (Sigma). T-24 cells (ATCC Accession No. HTB-4) were cultured in M199 medium supplemented with 10% FBS. PBMC were purified by Ficoll-Paque gradient as described (Current Protocols in Immunology, pp 7.1.1-7.1.2). Vero cells (ATCC Accession No. CCL-81) were grown in RPMI medium with 5% Nu serum and infected with the Silvio X-10/4 of T. cruzi as described previously (Chuenkova et al., J. Exp. Med. 181:1693-1703 (1995)).
(§2) Endothelial cells and T-24 cells were plated on 24-well plates at a density of 1×10^3 cells/well, while peripheral blood mononuclear cells (PBMC) were plated in the similar wells at 1×10^6/well. Triplicat cultures of cells were incubated test agents for a predetermined amount of time. […] Cytokines and chemokines released in the culture supernatants were measured by ELISA assay following the instructions of the manufacturer (Endogen). The cytokines tested were IL-1β, IL-4, IL-8, […], IL-12, IFN-γ, TNF-α, and the chemokines RANTES and MCP-1. Negative controls were cells incubated in medium containing polymixin B at 10 μg/ml, and positive controls were cells incubated with bacterial LPS at the low ng/ml range (for PBMC or HIMEC) or in the μg/ml range for carcinoma T-24 cells. In some experiments, IL-1β or TNFα were used as positive control for cytokine release.
TR peptides (Table 2) were synthesized at the Tufts Synthesis Facility (Boston, Mass.). Each peptide was purified by HPLC, and the number of amino acids and molecular weight of each peptide verified by mass spectrometry. Peptides were dissolved in growth medium (10% FCS in RPMI) and added at various concentrations to 1×10^6 PBMC/well in 24-well plates. After 24 hours, IL-6 was assayed by ELISA in the conditioned supernatants.

human Schwann cells = experiment: Serum withdrawal-induced apoptosis of Schwann cells (DAPI); type: cell-based; conditions: serum-free DMEM, 24-72 hours
IL-6 [2] = experiment: IL-6 secretion by T-24 carcinoma cells (ELISA); type: cell-based, human; conditions: 24 hours
Method: as §1, §2

PC12 cells [3] = type: cell-based; conditions: serum-free RPMI/0.2% BSA, collagen coated dishes, 16-17 hours
Akt kinase = experiment: Immunodetection and kinase assay of activated Akt in Schwann cells; conditions: Western blot P-Akt (Ser473)
Method: Schwann cells, grown in 10% FCS to 70% confluency in 6-well plates, were switched to DMEM containing 0.1% FCS for 48 hours to reduce basal Akt phosphorylation. Then the cells were placed in serum-free DMEM medium for 2 hours and challenged with TS, CD or other test factors for predetermined periods of time. When the PI-3 kinase inhibitor LY294002 (Sigma) was used, the inhibitor was added to the serum-starved cells 30 minutes before challenge with TS or CD. Cell samples were lysed with lysis buffer (20 mM Tris, pH 7.5, 150 mM NaCl, 1 mM EDTA, 1% Triton X-100 (t-Octylphenoxypolyethoxyethanol), 2.5 mM sodium pyrophosphate, 1 mM glycerophosphate, 1 mM Na3VO4, 1 μg/ml leupeptin and 1 mM Phenymethylsulfonyl fluoride (PMSF)). Samples (40 μg) were run on 10% SDS-Page, blotted to nitrocellulose paper and analyzed by Western (immuno) blot with monoclonal antibody specific for P-Ser473 of Akt (New England Biolabs). Reaction was visualized by chemiluminescence using the ECL kit (New England Nuclear).
Enzymatic activity of Akt kinase was assessed using the synthetic substrate GSK-3α-fusion protein (Cell Signaling Technology, Beverly, Mass.), according to the protocol provided by Cell Signaling Technology. In short, lysates of Schwann cells subjected to various treatments were immunoprecipitated with Akt antibody coupled to agarose beads, and the immunoprecipitates incubated with GSK-3α-fusion protein as the substrate for Akt phosphorylation, in the presence of 200 μM ATP. Phosphorylation of GSK-3 fusion protein was detected by Western blot using phospho-GSK-3αβ (Ser21/9)-specific antibody (Cell Signaling Technology). The reaction product was identified by chemiluminescence using the ECL kit (New England Nuclear).

Trans-sialidase assay = type: biochemical
Method: The trans-sialidase assay was performed as described (Scudder, P. et al., J. Biol. Chem., 268:9886-9891 (1993)) with slight modifications. Various amounts of intact enzyme or enzyme fragments were added to 50 mM PBS, Ph 7.2, containing 15% fetal calf serum and […] of [^14C]N-acetyllactosamine (4×10^5 dpm), 50 μg BSA and 0.02% NaN3 in a volume of 60 μl. After incubation for a predetermined amount of time at room temperature, the reaction mixture was diluted to 1.0 ml with distilled water and applied to a column containing 1.0 ml Q-Sepharose equilibrated with water. Sialylated product was eluted with 1 M NaCl and quantified by scintillation counting.
TS enzymatic activity was measured by the sialylation of the acceptor ^14C-labeled N-acetyllactosamine on anion exchange resins (Scudder, P. et al., J. Biol. Chem. 268:9886-9891 (1993)). Recombinant TSA-1, was expressed on insect sf9 cells and purified from serum-free medium by ion exchange chromatography (monoQ) and preparative SDS-PAGE (Wrightsman, R. A. et al., J. Immunol., 153:3148-3154 (1994).

PC12 cells [4] = experiment: Protection of PC12 cells from apoptosis induced by trophic factor withdrawal (DAPI, TUNEL); type: cell-based
From the text: PC12 cells were obtained from ATCC (Manassas, Va. (Accession No. CRL-1721)) and cultured on collagen-coated dishes in RPMI 1640 supplemented with 10% horse serum and 5% fetal bovine serum (Greene, L., and Tishler, A., Proc. Natl. Acad. Sci. USA, 73:2424-2428 (1976)). For differentiation and survival experiments, cells were washed three times in serum-free RPMI/0.2% BSA, plated in the same medium in collagen-coated plastic dishes at 2×10^5/ml, without and with growth factors, TS, recombinant proteins, synthetic peptides, for the time and concentrations indicated in the Figures.
Cell staining with 4,6-diamino-2-phenylindole (DAPI). Cells were fixed with 4% formaldehyde in PBS for 5 minutes, washed with PBS, stained with 10 μg/ml DAPI (Sigma) for 2 minutes, washed with PBS, and visualized under UV light using a fluorescent microscope. About 300-400 cells were examined under the microscope to determine the percentage of apoptotic cells.
Cell DNA nick end labeling (TUNEL) (Gavrieli, Y. et al., J. Cell. Biol., 119:493-501 (1992)) assay was performed using a kit purchased from Boehringer Mannheim as described by the manufacturer.
Protection against apoptosis of PC12 cells in serum-free medium containing a test agent (agent N) (e.g., protection induced by TS, TS fragments, NGF or other growth factors), was calculated by the formula: 100%−[(apoptosis(%) of cells kept in RPMI containing test agent N÷apoptosis (%) of cells kept in RPMI)×100%]. Testing the effect of Wortmannin (Sigma) and LY294002 (Sigma) in inhibiting the neuroprotection of TS was performed following the protocol described by others (Yao, R., and Cooper, G., Science, 267:2003-2006 (1995); D'Mello, et al., J. Neurosci., 17:1548-1560 (1997)). In brief, PC12 cells were switched from growth medium to RPMI without and with TS or various other growth factors. After 24 hours, Wortmannin and LY294002 were added to the cultures. After another 24 hours, cells were examined for apoptosis by the DAPI assay, as above.

B1: TS-Cat-47: recombinant fragment consisting of amino acid residues 79-415 of TS (SEQ ID NO:2) (protein, listed as Trypanosoma cruzi)
chain: MVAIADARYDTSNDNSLIDTVAKYSVDDGETWETQIAIKNSRVSSVSRVVDPTVIVKGNKLYVLVGSYYSSRSYWSSHGDARDWDILLAVGEVTKSTAGGKITASIKWGSPVSLKKFFPAEMEGMHTNQFLGGAGVAIVASNGNLVYPVQVTNKKKQVFSKIFYSEDDGKTWKFGKGRSDFGCSEPVALEWEGKLIINTRVDWKRRLVYESSDMEKPWVEAVGTVSRVWGPSPKSNQPGSQSSFTAVTIEGMRVMLFTHPLNFKGRWLRDRLNLWLTDNQRIYNVGQVSIGDENSAYSSVLYKDDKLYCLHEINTDEVYSLVFARLVGELRIIKSVL
neurite outgrowth in N18 cells (neuroblastoma N18 cells): inactive in stimulating neurite outgrowth; also recorded: did not promote neurite outgrowth

B2: LTR: recombinant full-length C-terminal long tandem repeat of TS clone 7F (protein)
chain: NRRQLNTEEIRTLFLSQDLIGTEAHMDSSSDSSAHSTPSTPADSSAHSTPSTPVDSSAHSTPSTPADSSAHGTPSTPVDSSAHGTPSTPADSSAHGTPSTPVDSSAHSTPSTPVDSSAHSTPSTPVDSSAHGAPSTPADSSAHGTPSTPVDSSAHGTPSTPADSSAHSTPSTPADSSAHSTPSTPADSSAHSTPSTPVDSSAHGTPSTPADSSAHSTPSTPADSSAHGTPSTPVDSSAHSTPSTPVDSSAHGTPSTPVDSSAHSTPSTPVDSSAHGTPSTPVDSSAHSTPSTPADSSAHSTPSTPADSSAHGTPSTPVDSSAHSTPSTPADSSAHSTPSTPVDSSAHSTPSTPADSSAHGTPSTPVDSSAHGTPSTPADSSAHSTPSTPADSSAHSTPSTPADSSAHSTPSTPVDSSAHSTPSTPADSSAHSTPSTPADSSAHSTPSTPADSSAHSTPSTPVDSSAHSTPSTPADSSAHGTPSTPADSSAHSTPSTPVDSSAHSTPSTPADSSAHGTPSTPADSSAHSTPSTPADSSAHGTPSTPADSSAHSTPSTPAGSSANGTVLILPDGAALSTFSGGGLLLCACALLLHVFFMAVF
IL-6 secretion by PBMC (IL-6 [1]): upregulated IL-6 release
inhibition of serum withdrawal-induced apoptosis of Schwann cells (human Schwann cells): did not promote Schwann cell survival
IL-6 secretion by T-24 cells (IL-6 [2]): effectively induced release of IL-6 in a dose-dependent manner; also recorded: dose dependent secretion of IL-6
neurite outgrowth in PC12 cells (PC12 cells [3]): did not induce neurite outgrowth
neurite outgrowth in N18 cells (neuroblastoma N18 cells): did not induce neurite outgrowth
phosphorylation (activation) of Akt kinase in Schwann cells (Akt kinase): nor activate PI3K/Akt signaling

B3: TS-H32 (protein, listed as Trypanosoma cruzi)
chain: KKKQVFSKIFYSEDDGKTWKFGEGRSAFGCSEAVALEWEGKLIINTRVDYRRRLVYESSDMGNTWLEAVGTLSRVWGPSPKSNQPGSQSSFTAVTIEGMRVMLFTHPLNFKGRWLRDRLNLWLTDNQRIYNVGQVSIGDENSAHSSVLYKDDKLYCLHEINSNEVYSLVFARLVGELRIIKSVLQSWKNWDSHLSSICTP
IL-6 secretion by PBMC (IL-6 [1]): stimulating IL-6 secretion
trans-sialidase (enzymatic) activity (Trans-sialidase assay): enzymatically-inactive
IL-6 secretion by T-24 cells (IL-6 [2]): stimulating IL-6 secretion

B4: TS-F-47: recombinant fragment, amino acid residues 79-666 of SEQ ID NO:34 (protein, listed as Trypanosoma cruzi)
chain: GDARDWDILLAVGEVTKSTAGGKITASIKWGSPVSLKKFFPAEMEGMHTNQFLGGAGVAIVASNGNLVYPVQVTNKRKQVFSKIFYSEDDGKTWKFGKGRSDFGCSEPVALEWEGKLIINTRVDWKRRLVYESSDMEKPWVEAVGTVSRVWGPSPKSNQPGSQTSFTAVTIEGMRVMLFTHPLNFKGRCVRDRLNLWLTDNQRIYNVGQVSIGDENSAYSSVLYKDDKLYCLHEINTDEVYSLVFARLVGELRIIKSVLRSWKNWTATCPAFAPLLIQPLRRQRVVVVPLSPRLVLLAFCRQRLPKRMGGSYRCVNASTANAERVRNGLKFAGVGGGALWPVSQQGQNQRYRFANHAFTLVASVTIHEAPRAASPLLGASLDSSGGKKLLGLSYDEKHQWQPIYGSTPVTPTGSWETGKRYHLVLTMANKIGSVYIDGELLEGSGQTVVPDGRTPDISHFYVGGYKRSDMPTISHVTVNNVLLYNRRQLNTEEIRTLFLSQDLIGTEAHMDSSSDSSAHSTPSTPADSSAHSTPSTPVDSSAHSTPSTPADSSAHGTPSTPVDSSAHGTPSTPADSSAHGTPSTPVDS
protection of PC12 cells from apoptosis induced by trophic factor withdrawal (PC12 cells [4]; serum-free RPMI-1640/0.2% BSA, 17 hours, DAPI or TUNEL): active
trans-sialidase (enzymatic) activity (Trans-sialidase assay): enzymatically inactive
neurite outgrowth in N18 cells (neuroblastoma N18 cells): as effective as the native enzyme in stimulating neurite outgrowth; also recorded: active both in stimulating neurite outgrowth

B5: NGF: Mouse 7S nerve growth factor (protein)
chain: SSTHPVFHMGEFSVCDSVSVWVGDKTTATDIKGKEVTVLAEVNINNSVFRQYFFETKCRASNPVESGCRGIDSKHWNSYCTTTHTFVKALTTDEKQAAWRFIRIDTACVCVLSRKATRRG
PC12 cells protected from apoptotic death (PC12 cells [4]; NGF at 0.5 ng/ml): 18%
neurite outgrowth in PC12 cells (PC12 cells [3]): induces neurite outgrowth

B6: cruzipain: T. cruzi protease (protein, UniProt P25779 123-467, looked up)
Cruzipain: APAAVDWRARGAVTAVKDQGQCGSCWAFSAIGNVECQWFLAGHPLTNLSEQMLVSCDKTDSGCSGGLMNNAFEWIVQENNGAVYTEDSYPYASGEGISPPCTTSGHTVGATITGHVELPQDEAQIAAWLAVNGPVAVAVDASSWMTYTGGVMTSCVSEQLDHGVLLVGYNDSAAVPYWIIKNSWTTQWGEEGYIRIAKGSNQCLVKEEASSAVVGGPGPTPEPTTTTTTSAPGPSPSYFVQMSCTDAACIVGCENVTLPTGQCLLTTSGVSAIVTCGAETLTEEVFLTSTHCSGPSVRSSVPLNKCNRLLRGSVEFFCGSSSSGRLADVDRQRRHQPYHSRHRRL
neurite outgrowth in PC12 cells (PC12 cells [3]): did not induce neurite extension
neurite outgrowth in PC12 cells (PC12 cells [3]; listed as cruzipan): ineffective
